{"source": "patent US11994512B2", "about": "“Single-cell genomic methods to generate ex vivo cell systems that recapitulate in vivo biology with improved fidelity” (Massachusetts Institute of Technology, priority 2018, dated 2024)", "test_system": "intracellular proteome of ENR+CD and ENR organoids", "assay": "LC-MS/MS TMT proteomics of ENR+CD versus ENR organoids", "type": "cell-based, C57BL/6 mice", "conditions": "for Average logFC: ENR+CD versus ENR organoids, sample pairs in aggregate (n=4, 2 technical replicates from two biological donors); for M1-1 Log2 Median Normalized / M1-2 Log2 Median Normalized / M2-1 Log2 Median Normalized / M2-2 Log2 Median Normalized: protein abundance ratio ENR+CD versus ENR organoids, LC-MS/MS TMT proteomics; for M1-1 Log2 Median Normalized: sample pair M1-1; for M1-2 Log2 Median Normalized: sample pair M1-2; for M2-1 Log2 Median Normalized: sample pair M2-1; for M2-2 Log2 Median Normalized: sample pair M2-2; for change: up = enriched in ENR+CD, down = enriched in ENR, FDR<0.05 and log fold change cut-off"}
{"molecule": "Q8BW75 (protein, UniProt Q8BW75 1-520, looked up, full-length) MSNKSDVIVVGGGISGMAAAKLLHDCGLSVVVLEARDRVGGRTYTIRNKNVKYVDLGGSYVGPTQNRILRLAKELGLETYKVNEVERLIHFVKGKSYAFRGPFPPVWNPITYLDNNNLWRTMDEMGQEIPSDAPWKAPLAEEWDYMTMKELLDKICWTKSTKQIATLFVNLCVTAETHEVSALWFLWYVKQCGGTTRIISTTNGGQERKFIGGSGQVSERIKDILGDRVKLERPVIHIDQTGENVIVKTLNHEIYEAKYVISAIPPALGMKIHYSPPLPMLRNQLISRVPLGSVIKCMVYYKEPFWRKKDFCGTMVIEGEEAPIAYTLDDTKPDGTYAAIMGFILAHKARKLVRLTKEERLRKLCELYAKVLNSQEALQPVHYEEKNWCEEQYSGGCYTTYFPPGILTQYGRVLRQPVGKIFFAGTETASHWSGYMEGAVEAGERAAREILHAIGKIPEDEIWQPEPESLDVPARPITSTFLERHLPSVPGLLKLFGLTTILSATALGFLAHKRGLFVHF", "values": [{"measurement": "Average logFC", "value": "−1.176"}, {"measurement": "M1-1 Log2 Median Normalized", "value": "−0.94"}, {"measurement": "M1-2 Log2 Median Normalized", "value": "−1.056"}, {"measurement": "M2-1 Log2 Median Normalized", "value": "−1.8625"}, {"measurement": "M2-2 Log2 Median Normalized", "value": "−1.177"}, {"measurement": "change", "value": "down"}]}
{"molecule": "Q8BZ20 (protein, UniProt Q8BZ20 1-711, looked up, full-length) MAQAAVAVAEVTQLLCAAGGALELAELRRRLRTSLGTDALERLLRDCGRFVVASRAVVAVGAGREAAAAASERLVLAVSSLRLCRAHQGPKPGCTGLCAQLHLCKFLIYGNCKFLKTGKNCRNGHNLKTDHNLSVLRTHGVDHLTYTELCQLLLQNDPSLLPDICLHYNKGDGPFGSCSFQKQCIKLHICQYFLQGECKFGTSCKRSHEFTNSESLEQLERLGLSSDLVSRLLSTYRNAYDIKNKGSALSKVSPSPAGPQGSSERKDSSGPVSPGTPSQEESEQICLYHIRKSCSFQEKCHRVHFHLPYRWQFLDGGKWKDLDNMELIEEAYSNPSKDRIVYTESAAGFHFDNLDFNSMKFGNTLARRLSTASSVTKPPHFILTTDWIWYWMDEFGSWQEYGRQGSGHPVTTISSSDVERAYLAFCAPGADAQAATLKFQAGKHNYELHFKAFLQKNLVYGTIRKVCRRPKYVSPQDVQMKQSCNTKLHGPKSIPDYWDPAALPDLGFKKITLSSSSEEYQKVWNIFNRTLPFYFVQKIERIQNMGLWEVYQWQKCQMQKQNGGKEVDERQLFHGTSANFVDAICQQNFDWRVCGLHGTSYGKGSYFARDAAYSHHYSKSDTHSHMMFLARVLVGDFVRGSTSFVRPPAKEGQSNAFYDSCVNSMSDPTIFVVFEKHQVYPEYLIQYSTSSKPPASPSIFVALGNLFTSRQ", "values": [{"measurement": "Average logFC", "value": 1.138}, {"measurement": "M1-1 Log2 Median Normalized", "value": 1.138}, {"measurement": "M1-2 Log2 Median Normalized", "value": 0.69}, {"measurement": "M2-1 Log2 Median Normalized", "value": 1.1465}, {"measurement": "M2-2 Log2 Median Normalized", "value": 1.295}, {"measurement": "change", "value": "up"}]}
{"molecule": "Q8C159 (protein, UniProt Q8C159 1-568, looked up, full-length) MTEAEVGAEDLDTLLDELDYLPGHFHLEMQLNFEPRSPAQLRARDLKLQREGLRQELELVATPQLPAVRHLLGTFSFYLEELGDAREHFLEVARKDPGNLNAWANLAHVYGQLGQEEEEEASAGRLASLMGLEGDPEDAGDPRLRAARCLAEQGYAHGFDVGCASPEERAQVLEAGIALYDKALGYGQQIPIEEKRSWYFTMATLFIRLDGIFLEMGSEEQKRLPAFNRTLALLGEVLKSSDSRHQALAWCYVGMLLERKDTFSTTPMGVHEYGYSGTEPLDCFGKAIEIAKNQPPILNRLAKIFHFLGKQDMAVGTCNMVLAVLTDPELNWQAYCTRAKVRIRAYVHDLERAKVGLGGLPDRNHLACAKADLEEVVKVCPSLRTYLDISQVYYYMGVDAMRELLAVDEAALNQALVFLAKAGELELGDTLPELQLLRGKCLRVQGEDANAAACFKRAVELDDEGSSHTEGFGCLLEALLAQWSQAQLSDGEVGYEVDVWLRHAQGKYPAARLRQELQRVWRGHTEEVLGLARALVAQGRPALVRLLFETMEHEGEDAGGSGKSRVSS", "values": [{"measurement": "Average logFC", "value": "−1.177"}, {"measurement": "M1-1 Log2 Median Normalized", "value": "−0.633"}, {"measurement": "M1-2 Log2 Median Normalized", "value": "−1.446"}, {"measurement": "M2-1 Log2 Median Normalized", "value": "−1.1765"}, {"measurement": "M2-2 Log2 Median Normalized", "value": "−1.271"}, {"measurement": "change", "value": "down"}]}
{"molecule": "Q8C196 (protein, UniProt Q8C196 1-1500, looked up, full-length) MTRILTACKVVKTLKSGFGFANVTTKRQWDFSRPGIRLLSVKAKTAHIVLEDGTKMKGYSFGHPSSVAGEVVFNTGLGGYPEALTDPAYKGQILTMANPIIGNGGAPDTTARDELGLNKYMESDGIKVAGLLVLNYSNDYNHWLATKSLGQWLQEEKVPAIYGVDTRMLTKIIRDKGTMLGKIEFEGQSVDFVDPNKQNLIAEVSTKDVKVFGKGNPTKVVAVDCGIKNNVIRLLVKRGAEVHLVPWNHDFTQMEYDGLLIAGGPGNPALAQPLIQNVKKILESDRKEPLFGISTGNIITGLAAGAKSYKMSMANRGQNQPVLNITNRQAFITAQNHGYALDNTLPAGWKPLFVNVNDQTNEGIMHESKPFFAVQFHPEVSPGPTDTEYLFDSFFSLIKKGKGTTITSVLPKPALVASRVEVSKVLILGSGGLSIGQAGEFDYSGSQAVKAMKEENVKTVLMNPNIASVQTNEVGLKQADAVYFLPITPQFVTEVIKAERPDGLILGMGGQTALNCGVELFKRGVLKEYGVKVLGTSVESIMATEDRQLFSDKLNEINEKIAPSFAVESMEDALKAADTIGYPVMIRSAYALGGLGSGICPNKETLIDLGTKAFAMTNQILVERSVTGWKEIEYEVVRDADDNCVTVCNMENVDAMGVHTGDSVVVAPAQTLSNAEFQMLRRTSVNVVRHLGIVGECNIQFALHPTSMEYCIIEVNARLSRSSALASKATGYPLAFIAAKIALGIPLPEIKNVVSGKTSACFEPSLDYMVTKIPRWDLDRFHGTSSRIGSSMKSVGEVMAIGRTFEESFQKALRMCHPSVDGFTPRLPMNKEWPANLDLKKELSEPSSTRIYAIAKALENNMSLDEIVRLTSIDKWFLYKMRDILNMDKTLKGLNSDSVTEETLRKAKEIGFSDKQISKCLGLTEAQTRELRLKKNIHPWVKQIDTLAAEYPSVTNYLYVTYNGQEHDIKFDEHGIMVLGCGPYHIGSSVEFDWCAVSSIRTLRQLGKKTVVVNCNPETVSTDFDECDKLYFEELSLERILDIYHQEACNGCIISVGGQIPNNLAVPLYKNGVKIMGTSPLQIDRAEDRSIFSAVLDELKVAQAPWKAVNTLNEALEFANSVGYPCLLRPSYVLSGSAMNVVFSEDEMKRFLEEATRVSQEHPVVLTKFVEGAREVEMDAVGKEGRVISHAISEHVEDAGVHSGDATLMLPTQTISQGAIEKVKDATRKIAKAFAISGPFNVQFLVKGNDVLVIECNLRASRSFPFVSKTLGVDFIDVATKVMIGESIDEKRLPTLEQPIIPSDYVAIKAPMFSWPRLRDADPILRCEMASTGEVACFGEGIHTAFLKAMLSTGFKIPQKGILIGIQQSFRPRFLGVAEQLHNEGFKLFATEATSDWLNANNVPATPVAWPSQEGQNPSLSSIRKLIRDGSIDLVINLPNNNTKFVHDNYVIRRTAVDSGIALLTNFQVTKLFAEAVQKSRTVDSKSLFHYRQYSAGKAA", "values": [{"measurement": "Average logFC", "value": "−1.21"}, {"measurement": "M1-1 Log2 Median Normalized", "value": "−1.302"}, {"measurement": "M1-2 Log2 Median Normalized", "value": "−0.76"}, {"measurement": "M2-1 Log2 Median Normalized", "value": "−1.9525"}, {"measurement": "M2-2 Log2 Median Normalized", "value": "−0.825"}, {"measurement": "change", "value": "down"}]}
{"molecule": "Q8C2E4 (protein, UniProt Q8C2E4 1-695, looked up, full-length) MDLLRLSRLFSGPRPIGLSVLQHLDLVGSTRWTGGREGPARLRAAFCGSSSPLPLGSGNQKEMSSLCSDSSKLSTVAPQEEAEEESFGSLSGKFSSRRIFHKSTAQLYNLQLKEQGGEEEELEPRPWRGRRNTQYWYFFQCKRLIKEGKLAEALDLFERQMLKEERLQPLECNYTVLIGGCGRVGYLKKAFRLFNDMKKRDLEPSDATYTALFNVCAESPWKDSALQSALKLRQQLQARNFQLNLKTYHALLKVAAKCADLRLCLDVFKEIIQRGHAVTEETFCFLLVGCIQDKKTGFRQAMQVWRQMLSLGIKPSRHGYNLLLEAARDCGLGDPEVASRLLLTSQEETILLPPPKGRHMAGRKVQAKTVHGVSLRHVEALERQLFLEPSQKLEGPPALPEARVTSRTQPEVETTAEPGHTVALTPLASKPTHLELEVSLLSLGTLSPAVVSFGTVATPADRLALMGGLEGFLGKMTEHGLQPDIKTLTLLAEVVEPGSTAESSLLSVLDRHRVEADVTFFNTLIRKKSKLGDLEGAKALLPILAKKGIVPNLRTFCNLAIGCHRPRDGMQLLADMKKSQVSPNIHIYSTLINAALKKLDYTYLISILKDMRQNSVPVNEVVVRQLEFAAEYPPTFDRYKGKNTYLEKIDGFRAYYKQWLKAMPAEEAPHPWQEFQNKPVGDQDTTDKAGGLRDG", "values": [{"measurement": "Average logFC", "value": "−1.79"}, {"measurement": "M1-1 Log2 Median Normalized", "value": "−1.411"}, {"measurement": "M1-2 Log2 Median Normalized", "value": "−1.637"}, {"measurement": "M2-1 Log2 Median Normalized", "value": "−1.8825"}, {"measurement": "M2-2 Log2 Median Normalized", "value": "−2.231"}, {"measurement": "change", "value": "down"}]}
{"molecule": "Q8C5N3 (protein, UniProt Q8C5N3 1-908, looked up, full-length) MKSSVAHMKSSGHNRRETHSSYRRSSSPEDRYTEQERSPRDRGYSDYSRSDYERSRRGYSYDDSMESRSRDREKRRERERDADHRKRSRKSPSPDRSPARGGGQSSPQEEPTWKKKKDELDPLLTRTGGAYIPPAKLRMMQEQITDKSSLAYQRMSWEALKKSINGLINKVNISNISIIIQELLQENIVRGRGLLSRSVLQAQSASPIFTHVYAALVAIINSKFPQIGELILKRLILNFRKGYRRNDKQLCLTASKFVAHLINQNVAHEVLCLEMLTLLLERPTDDSVEVAIGFLKECGLKLTQVSPRGINAIFERLRNILHESEIDKRVQYMIEVMFAVRKDGFKDHPVILEGLDLVEEDDQFTHMLPLEDDYNPEDVLNVFKMDPNFMENEEKYKAIKKEILDEGDSDSNTDQGAGSSEDEEEEDEEEEGEDEEGGQKVTIHDKTEINLVSFRRTIYLAIQSSLDFEECAHKLLKMEFAESQTKELCNMILDCCAQQRTYEKFFGLLAGRFCMLKKEYMESFESIFKEQYDTIHRLETNKLRNVAKMFAHLLYTDSLPWSVLECIKLSEETTTSSSRIFVKIFFQELCEYMGLPKLNARLKDETLQPFFEGLLPRDNPRNTRFAINFFTSIGLGGLTDELREHLKNTPKVIVAQKPEAEQKKPALTSSSSESSSASDSSDSESDSSESSSESSSDASDSSSSSSTQSSTSGITAHSAKGTRKKRQGKARGEEVDKLARGHQALERRREGGREDQRHQEGRTERARSERRRAQNSRDADWRDPLAKHIDDRSHENSHSRVGNGREQGSHREPEDRHGEPKKRRERRDSFSENEKQRSRNQDSDNVRRKDRSKSRERSRRHSGHKGDDARCQNSAERRWEKPGRRPEQSRESKRSQDRRREKSPTTQK", "values": [{"measurement": "Average logFC", "value": "−1.281"}, {"measurement": "M1-1 Log2 Median Normalized", "value": "−1.581"}, {"measurement": "M1-2 Log2 Median Normalized", "value": "−0.922"}, {"measurement": "M2-1 Log2 Median Normalized", "value": "−0.9735"}, {"measurement": "M2-2 Log2 Median Normalized", "value": "−1.648"}, {"measurement": "change", "value": "down"}]}
